{"source": "patent US20120316071A1", "about": "(published 2012)", "binders": {"B1": {"name": "Fab VH1-46_IGHD6-6*01_IGHJ1*01 S102A/S103P/S104F/H111F (APFF) & L6_IGKJ1*01 S92P (Fab, V domains shown)", "VH": "QVQLVQSGAEVKKPGASVKVSCKASGYTFTSYYMHWVRQAPGQGLEWMGIINPSGGSTSYAQKFQGRVTMTRDTSTSTVYMELSSLRSEDTAVYYCAREEYAPFSAEYFQFWGQGTLVTVSS", "VL": "EIVLTQSPATLSLSPGERATLSCRASQSVSSYLAWYQQKPGQAPRLLIYDASNRATGIPARFSGSGSGTDFTLTISSLEPEDFAVYYCQQRPNWPPWTFGQGTKVEIKR", "notes": "also called APFF / S92P"}, "B2": {"name": "Fab VH1-46_IGHD6-6*01_IGHJ1*01 S102A/S103P/S104F/H111F (APFF) & L6_IGKJ1*01 W94L (Fab, V domains shown)", "VH": "B1 VH", "VL": "B1 VL with P92S, W94L", "notes": "also called APFF / W94L"}, "B3": {"name": "Fab VH1-46_IGHD6-6*01_IGHJ1*01 S102A/S103P/S104F/H111F (APFF) & L6_IGKJ1*01 W94M (Fab, V domains shown)", "VH": "B1 VH", "VL": "B1 VL with P92S, W94M", "notes": "also called APFF / W94M"}, "B4": {"name": "Fab VH1-46_IGHD6-6*01_IGHJ1*01 S102A/S103P/S104F/H111F (APFF) & L6_IGKJ1*01 W94P (Fab, V domains shown)", "VH": "B1 VH", "VL": "B1 VL with P92S, W94P", "notes": "also called APFF / W94P"}, "B5": {"name": "Fab VH1-46_IGHD6-6*01_IGHJ1*01 S102A/S103P/S104F/H111F (APFF) & L6_IGKJ1*01 W94T (Fab, V domains shown)", "VH": "B1 VH", "VL": "B1 VL with P92S, W94T", "notes": "also called APFF / W94T"}, "B6": {"name": "Fab VH1-46_IGHD6-6*01_IGHJ1*01 S102A/S103P/S104F/H111F (APFF) & L6_IGKJ1*01 S92P (Fab, V domains shown)", "VH": "B1 VH", "VL": "B1 VL", "notes": "Fab; also called APFF / S92P"}}, "key": {"[1]": {"biological_target": "T1, rHuman P-Cadherin/Fc Chimera, CF (R&D Systems Cat#861-PC) (human, UniProt P22223 108-654)", "experiment": "ECL Multispot (MSD), antigen spotted on plate, Fab in solution; blank spot 292"}, "[2]": {"biological_target": "T2, rHuman Notch-1/Fc Chimera, CF (R&D Systems Cat#3647-TK) (human)", "T2 chain": "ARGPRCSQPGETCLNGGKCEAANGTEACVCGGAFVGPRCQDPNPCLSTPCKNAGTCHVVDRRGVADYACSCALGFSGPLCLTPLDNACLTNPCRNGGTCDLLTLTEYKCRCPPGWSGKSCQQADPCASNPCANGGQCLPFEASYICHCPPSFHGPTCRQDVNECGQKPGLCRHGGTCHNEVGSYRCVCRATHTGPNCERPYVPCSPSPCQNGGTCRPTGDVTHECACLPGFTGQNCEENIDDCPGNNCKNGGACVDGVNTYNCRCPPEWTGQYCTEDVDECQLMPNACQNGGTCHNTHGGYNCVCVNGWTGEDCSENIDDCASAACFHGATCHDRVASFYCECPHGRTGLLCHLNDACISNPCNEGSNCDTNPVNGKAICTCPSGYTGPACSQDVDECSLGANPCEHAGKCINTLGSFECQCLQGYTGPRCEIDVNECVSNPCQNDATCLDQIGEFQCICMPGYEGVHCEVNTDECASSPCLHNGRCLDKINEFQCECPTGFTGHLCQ", "experiment": "ECL Multispot (MSD), antigen spotted on plate, Fab in solution; blank spot 292"}, "[3]": {"biological_target": "T3, rHuman HGF R/c-MET/Fc Chimera, CF (R&D Systems Cat#358-MT/CF) (human, UniProt P08581 25-932)", "experiment": "ECL Multispot (MSD), antigen spotted on plate, Fab in solution; blank spot 292"}, "[4]": {"biological_target": "T4, rHuman Erythropoietin R/Fc Chimera, CF (R&D Systems Cat#963-ER) (human, UniProt P19235 25-250)", "experiment": "ECL Multispot (MSD), antigen spotted on plate, Fab in solution; blank spot 292"}, "[5]": {"biological_target": "T5, rHuman CD44/Fc Chimera, CF (R&D Systems Cat#3660-CD) (human, UniProt P16070 21-220)", "experiment": "ECL Multispot (MSD), antigen spotted on plate, Fab in solution; blank spot 292"}, "[6]": {"biological_target": "T1, rHuman P-Cadherin/Fc Chimera, CF (R&D …)", "experiment": "ECL Multispot (MSD), antigen spotted on plate, Fab in solution; blank spot 200"}, "[7]": {"biological_target": "T2, rHuman Notch-1/Fc Chimera, CF (R&D …)", "experiment": "ECL Multispot (MSD), antigen spotted on plate, Fab in solution; blank spot 200"}, "[8]": {"biological_target": "T3, rHuman HGF R/c-MET/Fc Chimera, CF (R&D …)", "experiment": "ECL Multispot (MSD), antigen spotted on plate, Fab in solution; blank spot 200"}, "[9]": {"biological_target": "T4, rHuman Erythropoietin R/Fc Chimera, CF …", "experiment": "ECL Multispot (MSD), antigen spotted on plate, Fab in solution; blank spot 200"}, "[10]": {"biological_target": "T5, rHuman CD44/Fc Chimera, CF (R&D Systems …)", "experiment": "ECL Multispot (MSD), antigen spotted on plate, Fab in solution; blank spot 200"}, "[11]": {"biological_target": "T1, rHuman P-Cadherin/Fc Chimera, CF (R&D …)", "experiment": "ECL Multispot (MSD), antigen spotted on plate, Fab in solution; blank spot 241"}, "[12]": {"biological_target": "T2, rHuman Notch-1/Fc Chimera, CF (R&D …)", "experiment": "ECL Multispot (MSD), antigen spotted on plate, Fab in solution; blank spot 241"}, "[13]": {"biological_target": "T4, rHuman Erythropoietin R/Fc Chimera, CF …", "experiment": "ECL Multispot (MSD), antigen spotted on plate, Fab in solution; blank spot 241"}, "[14]": {"biological_target": "T5, rHuman CD44/Fc Chimera, CF (R&D Systems …)", "experiment": "ECL Multispot (MSD), antigen spotted on plate, Fab in solution; blank spot 241"}, "[15]": {"biological_target": "T1, rHuman P-Cadherin/Fc Chimera, CF (R&D …)", "experiment": "ECL Multispot (MSD), antigen spotted on plate, Fab in solution; blank spot 169"}, "[16]": {"biological_target": "T2, rHuman Notch-1/Fc Chimera, CF (R&D …)", "experiment": "ECL Multispot (MSD), antigen spotted on plate, Fab in solution; blank spot 169"}, "[17]": {"biological_target": "T3, rHuman HGF R/c-MET/Fc Chimera, CF (R&D …)", "experiment": "ECL Multispot (MSD), antigen spotted on plate, Fab in solution; blank spot 169"}, "[18]": {"biological_target": "T4, rHuman Erythropoietin R/Fc Chimera, CF …", "experiment": "ECL Multispot (MSD), antigen spotted on plate, Fab in solution; blank spot 169"}, "[19]": {"biological_target": "T5, rHuman CD44/Fc Chimera, CF (R&D Systems …)", "experiment": "ECL Multispot (MSD), antigen spotted on plate, Fab in solution; blank spot 169"}, "[20]": {"biological_target": "T1, rHuman P-Cadherin/Fc Chimera, CF (R&D …)", "experiment": "ECL Multispot (MSD), antigen spotted on plate, Fab in solution; blank spot 438"}, "[21]": {"biological_target": "T2, rHuman Notch-1/Fc Chimera, CF (R&D …)", "experiment": "ECL Multispot (MSD), antigen spotted on plate, Fab in solution; blank spot 438"}, "[22]": {"biological_target": "T3, rHuman HGF R/c-MET/Fc Chimera, CF (R&D …)", "experiment": "ECL Multispot (MSD), antigen spotted on plate, Fab in solution; blank spot 438"}, "[23]": {"biological_target": "T4, rHuman Erythropoietin R/Fc Chimera, CF …", "experiment": "ECL Multispot (MSD), antigen spotted on plate, Fab in solution; blank spot 438"}, "[24]": {"biological_target": "T5, rHuman CD44/Fc Chimera, CF (R&D Systems …)", "experiment": "ECL Multispot (MSD), antigen spotted on plate, Fab in solution; blank spot 438"}, "[25]": {"biological_target": "T6, rHuman CD44/Fc Chimera, CF (R&D Systems Cat#3660-CD) (human, UniProt P16070 21-220)", "T6 construct": "Bought recombinant protein; not shown: Fc of the bought chimera", "experiment": "MSD ECL multispot assay, antigen spotted on plate, Fab in solution; blank spot of this row 166"}, "[26]": {"biological_target": "T7, rHuman Erythropoietin R/Fc Chimera, CF (R&D Systems Cat#963-ER) (human, UniProt P19235 25-250)", "T7 construct": "Bought recombinant protein; also called EPO R; EPO R/Fc; not shown: Fc of the bought chimera", "T7 sequence (looked up)": "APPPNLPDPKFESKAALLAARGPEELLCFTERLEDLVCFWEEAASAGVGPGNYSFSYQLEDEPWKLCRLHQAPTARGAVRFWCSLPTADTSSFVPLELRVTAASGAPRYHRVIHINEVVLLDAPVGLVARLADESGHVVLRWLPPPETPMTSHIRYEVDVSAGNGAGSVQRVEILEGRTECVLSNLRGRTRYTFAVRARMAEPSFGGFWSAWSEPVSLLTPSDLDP", "experiment": "MSD ECL multispot assay, antigen spotted on plate, Fab in solution; blank spot of this row 166"}, "[27]": {"biological_target": "T8, rHuman HGF R/c-MET/Fc Chimera, CF (R&D Systems Cat#358-MT/CF) (human, UniProt P08581 25-932)", "T8 construct": "Bought recombinant protein; also called HGF R/Fc; not shown: Fc of the bought chimera", "experiment": "MSD ECL multispot assay, antigen spotted on plate, Fab in solution; blank spot of this row 166"}, "[28]": {"biological_target": "T9, rHuman IGF-1 sR (insulin-like growth factor-1 soluble receptor), CF (R&D Systems Cat#391-GR) (human, UniProt P08069 31-932)", "T9 construct": "Bought recombinant soluble receptor", "experiment": "MSD ECL multispot assay, antigen spotted on plate, Fab in solution; blank spot of this row 166"}, "[29]": {"biological_target": "T10, rHuman P-Cadherin/Fc Chimera, CF (R&D Systems Cat#861-PC) (human, UniProt P22223 108-654)", "T10 construct": "Bought recombinant protein; not shown: Fc of the bought chimera", "experiment": "MSD ECL multispot assay, antigen spotted on plate, Fab in solution; blank spot of this row 166"}, "[30]": {"biological_target": "T11, Recombinant Human DLL4 (R&D Systems Cat#1506-D4/CF) (human, UniProt Q9NR61 27-524)", "T11 construct": "Bought recombinant protein; also called delta-like protein 4; rHuman DLL4", "experiment": "MSD ECL multispot assay, antigen spotted on plate, Fab in solution; blank spot of this row 166"}, "[31]": {"biological_target": "T12, rHuman Notch-1/Fc Chimera, CF (R&D Systems Cat#3647-TK) (human, UniProt P46531 19-526)", "T12 construct": "Bought recombinant protein; not shown: Fc of the bought chimera", "experiment": "MSD ECL multispot assay, antigen spotted on plate, Fab in solution; blank spot of this row 166"}}, "note": "Positions count from the first letter of the chain named. In names and notes the source's numbering stands.", "data": [{"binder": "B1", "values": [{"measurement": "ECL signal", "setting": "[1]", "result": 354}, {"measurement": "ECL signal", "setting": "[2]", "result": 346}, {"measurement": "ECL signal", "setting": "[3]", "result": 242}, {"measurement": "ECL signal", "setting": "[4]", "result": 391}, {"measurement": "ECL signal", "setting": "[5]", "result": 282}]}, {"binder": "B2", "values": [{"measurement": "ECL signal", "setting": "[6]", "result": 296}, {"measurement": "ECL signal", "setting": "[7]", "result": 369}, {"measurement": "ECL signal", "setting": "[8]", "result": 187}, {"measurement": "ECL signal", "setting": "[9]", "result": 333}, {"measurement": "ECL signal", "setting": "[10]", "result": 309}]}, {"binder": "B3", "values": [{"measurement": "ECL signal", "setting": "[11]", "result": 346}, {"measurement": "ECL signal", "setting": "[12]", "result": 321}, {"measurement": "ECL signal", "setting": "[13]", "result": 435}, {"measurement": "ECL signal", "setting": "[14]", "result": 327}]}, {"binder": "B4", "values": [{"measurement": "ECL signal", "setting": "[15]", "result": 268}, {"measurement": "ECL signal", "setting": "[16]", "result": 228}, {"measurement": "ECL signal", "setting": "[17]", "result": 275}, {"measurement": "ECL signal", "setting": "[18]", "result": 292}, {"measurement": "ECL signal", "setting": "[19]", "result": 241}]}, {"binder": "B5", "values": [{"measurement": "ECL signal", "setting": "[20]", "result": 481}, {"measurement": "ECL signal", "setting": "[21]", "result": 418}, {"measurement": "ECL signal", "setting": "[22]", "result": 377}, {"measurement": "ECL signal", "setting": "[23]", "result": 432}, {"measurement": "ECL signal", "setting": "[24]", "result": 453}]}, {"binder": "B6", "values": [{"measurement": "ECL signal", "setting": "[25]", "result": 292}, {"measurement": "ECL signal", "setting": "[26]", "result": 385}, {"measurement": "ECL signal", "setting": "[27]", "result": 256}, {"measurement": "ECL signal", "setting": "[28]", "result": 280}, {"measurement": "ECL signal", "setting": "[29]", "result": 307}, {"measurement": "ECL signal", "setting": "[30]", "result": 446}, {"measurement": "ECL signal", "setting": "[31]", "result": 328}]}]}
